Patent US5262522

Assays:
[1] = target: Endogenous high affinity simian LIF receptors on COS-7 cells (simian); assay: Scatchard analysis of 125I-LIF binding to COS-7 cells transfected with pHLIFR-65 and CAV, high affinity site (curve B, site 1)
[2] = target: Endogenous high affinity simian LIF receptors on COS-7 cells (simian); assay: Scatchard analysis of 125I-LIF binding to non-transfected COS-7 cells (curve E)

Recombinant human leukemia inhibitory factor (LIF) (from UniProt P15018) (ligand)
Kd [1]: 0.033 nM | Kd [2]: 0.03 nM
